Results on 1 substance are retold here after US6696409.

Assay [1] has as its target Y1 receptors in anaesthetised rats (rat). Nature of the assay: cell-based or functional assay.
Assay [2] addresses Y2-like receptors in anaesthetised rats (rat). Nature of the assay: cell-based or functional assay.

Turning to “Ac[L28,I30]NPY24-36 (from UniProt P01303 52-64) (peptide)”, the Increase in BP (rel to NPY), anaesthetised rats (relative to NPY) in assay [1] was determined as 0. Further, the EC50 of the change in pulse interval (PI %), vagal stimulation in anaesthetised rats in assay [2] was determined as 1.26 nmol.
